In one test the test system is ES-TS cell clusters. Nature of the test: Cavitation of ES-TS cell clusters (yield of cavitated blastoids). Conditions: FIG. 4h; CHIR99021 at 3 uM. In kind it is cell-based, mouse. The protocol: FIG. 4c: […], The yield of cavitated blastoids is described by the percentage of ES-TS cell clusters that were cavitated after 96 hours of culture, thus forming an artificial blastocyst or blastoid. […]
The efficiency of blastoid formation is measured as the percentage of cavitated structures with (1) an external cellular layer expressing the transcription factors CDX2, Eomes and GATA3 and (2) an internal cellular aggregate expressing the transcription factors Oct4 and Sox2 and at least partly Nanog.
The formation of a cavity is assessed by the formation of a volume within the aggregate that is not occupied by cellular nucleus. The formation of a cavity is preferably assessed using the cross-sectional section of a cellular aggregate stained with a nuclear-specific dye (for example DAPI).
• Double layer formation: the formation of an (at least) double layered cell aggregate with an external layer of TS cells and an inner layer of ES cells is evaluated using transgenic cell lines. […] The H2B-RFP ES cells are thus constitutively expressing a red fluorescence within their nucleus which allows for their tracking. • TS cells were derived from a mouse constitutively expressing Green Fluorescent Protein (GFP) under the control of a cytomegalovirus promoter in all cells. […]

Test [1] relates to Cdx2 expression in trophoblast stem cells of ES-TS aggregates. Nature of the test: Cdx2 expression by CDX2 immunostaining. The class given is cell-based, mouse. Conditions: CDX2 immunostaining (FIG. 4g). On the procedure:
• Double layer formation: the formation of an (at least) double layered cell aggregate with an external layer of TS cells and an inner layer of ES cells is evaluated using transgenic cell lines. Specifically, ES cells were transfected with Histone 2B and a Red Fluorescent Protein under the control of a cytomegalovirus promoter and clonally derived. The H2B-RFP ES cells are thus constitutively expressing a red fluorescence within their nucleus which allows for their tracking. • TS cells were derived from a mouse constitutively expressing Green Fluorescent Protein (GFP) under the control of a cytomegalovirus promoter in all cells. The GFP TS cells are thus expressing a green fluorescence in their cytoplasma which allows for their tracking. • The formation of a double-layered aggregate is thus assessed by observing a green outer layer of cells and a red inner layer of cells. The efficiency of engulfment is determined as the percentage of green-colored projection area (representing the TS cell layer) that overlaps with an artificial 3-pixel-wide ring drawn around the red-colored projection area (representing the inner aggregate of ES cells) after 24 hours of culturing the ES-TS cell clusters. […] The formation of a cavity is preferably assessed using the cross-sectional section of a cellular aggregate stained with a nuclear-specific dye (for example DAPI). […]

B1: Wnt3a: Wnt ligand (protein, UniProt P56704 19-352, looked up)
Protein Wnt-3a: SYPIWWSLAVGPQYSSLGSQPILCASIPGLVPKQLRFCRNYVEIMPSVAEGIKIGIQECQHQFRGRRWNCTTVHDSLAIFGPVLDKATRESAFVHAIASAGVAFAVTRSCAEGTAAICGCSSRHQGSPGKGWKWGGCSEDIEFGGMVSREFADARENRPDARSAMNRHNNEAGRQAIASHMHLKCKCHGLSGSCEVKTCWWSQPDFRAIGDFLKDKYDSASEMVVEKHRESRGWVETLRPRYTYFKVPTERDLVYYEASPNFCEPNPETGSFGTRDRTCNVSSHGIDGCDLLCCGRGHNARAERRREKCRCVFHWCCYVSCQECTRVYDVHTCK
B1: the “yield of cavitated blastoids / cavitation” value with ES-TS cell clusters was “increases the yield of cavitated blastoids”.

B2: HB-EGF: a protein and a growth factor known in the art to activate the MAPK signalling pathway (protein, UniProt Q99075 63-148, looked up)
Heparin-binding EGF-like …: DLQEADLDLLRVTLSSKPQALATPNKEEHGKRKKKGKGLGKKRDPCLRKYKDFCIHGECKYVKELRAPSCICHPGYHGERCHGLSL
modifications: Heparin-binding EGF-like growth factor
Take B2: in test [1], the Cdx2 expression entry is “positively correlates with an increase of Cdx2 expression”.

The values above are taken from patent US9822336B2, “Blastoid, cell line based artificial blastocyst” (Universiteit Maastricht, priority 2013, dated 2017).
